# Publication PMC3817407
# T1: ECF01_3473
# T1 chain: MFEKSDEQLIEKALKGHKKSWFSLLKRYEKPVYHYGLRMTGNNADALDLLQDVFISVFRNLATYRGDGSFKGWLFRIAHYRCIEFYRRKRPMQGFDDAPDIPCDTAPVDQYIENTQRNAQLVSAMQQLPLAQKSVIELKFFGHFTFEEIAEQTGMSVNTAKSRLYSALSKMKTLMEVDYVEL
# T2: ECF02_2817
# T2 chain: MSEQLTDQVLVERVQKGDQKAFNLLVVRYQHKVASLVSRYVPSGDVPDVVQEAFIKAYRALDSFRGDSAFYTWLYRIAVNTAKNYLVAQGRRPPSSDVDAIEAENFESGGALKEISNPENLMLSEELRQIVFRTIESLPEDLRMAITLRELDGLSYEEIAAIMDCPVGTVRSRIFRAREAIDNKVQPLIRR
# T3: ECF03_1198
# T3 chain: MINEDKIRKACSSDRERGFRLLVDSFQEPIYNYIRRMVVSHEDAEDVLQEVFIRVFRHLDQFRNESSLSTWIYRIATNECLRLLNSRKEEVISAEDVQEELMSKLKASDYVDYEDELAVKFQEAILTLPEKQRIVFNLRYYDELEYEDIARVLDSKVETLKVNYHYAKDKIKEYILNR
# T4: ECF11_3726
# T4 chain: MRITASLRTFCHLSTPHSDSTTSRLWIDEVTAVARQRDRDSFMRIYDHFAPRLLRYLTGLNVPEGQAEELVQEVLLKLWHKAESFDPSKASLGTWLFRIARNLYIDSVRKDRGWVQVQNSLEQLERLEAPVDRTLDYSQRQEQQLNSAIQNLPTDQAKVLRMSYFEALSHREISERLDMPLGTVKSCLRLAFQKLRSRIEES
# T5: ECF14_3200
# T5 chain: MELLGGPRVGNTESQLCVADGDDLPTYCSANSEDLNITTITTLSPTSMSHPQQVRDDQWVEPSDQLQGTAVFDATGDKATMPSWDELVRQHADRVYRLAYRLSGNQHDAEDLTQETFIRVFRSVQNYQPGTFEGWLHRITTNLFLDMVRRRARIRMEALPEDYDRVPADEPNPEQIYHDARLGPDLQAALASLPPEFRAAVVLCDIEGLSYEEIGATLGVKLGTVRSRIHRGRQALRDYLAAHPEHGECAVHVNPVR
# T6: ECF15_524
# T6 chain: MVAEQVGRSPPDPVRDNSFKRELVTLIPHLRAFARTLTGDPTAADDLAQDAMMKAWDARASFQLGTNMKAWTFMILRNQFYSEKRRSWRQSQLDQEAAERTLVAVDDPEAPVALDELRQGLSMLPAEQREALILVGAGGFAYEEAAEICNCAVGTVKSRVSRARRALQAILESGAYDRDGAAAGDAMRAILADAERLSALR
# T7: ECF16_3622
# T7 chain: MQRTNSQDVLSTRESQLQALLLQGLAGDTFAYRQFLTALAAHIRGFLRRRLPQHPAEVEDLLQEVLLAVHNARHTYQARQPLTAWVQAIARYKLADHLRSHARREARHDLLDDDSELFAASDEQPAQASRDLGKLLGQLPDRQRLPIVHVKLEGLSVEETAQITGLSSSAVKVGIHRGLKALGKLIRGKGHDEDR
# T8: ECF16_973
# T8 chain: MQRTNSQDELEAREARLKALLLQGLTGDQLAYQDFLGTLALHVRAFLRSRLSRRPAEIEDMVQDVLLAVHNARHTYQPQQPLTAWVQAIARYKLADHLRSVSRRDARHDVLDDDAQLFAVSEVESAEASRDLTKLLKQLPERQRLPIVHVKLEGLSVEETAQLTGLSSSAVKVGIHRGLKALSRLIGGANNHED
# T9: ECF25_1645
# T9 chain: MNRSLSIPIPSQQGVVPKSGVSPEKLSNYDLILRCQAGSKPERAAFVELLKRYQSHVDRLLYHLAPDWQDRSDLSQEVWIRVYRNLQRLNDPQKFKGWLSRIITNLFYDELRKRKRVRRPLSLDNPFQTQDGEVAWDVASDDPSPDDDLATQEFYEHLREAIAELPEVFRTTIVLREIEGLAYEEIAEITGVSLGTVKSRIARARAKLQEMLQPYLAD
# T10: ECF27_4265
# T10 chain: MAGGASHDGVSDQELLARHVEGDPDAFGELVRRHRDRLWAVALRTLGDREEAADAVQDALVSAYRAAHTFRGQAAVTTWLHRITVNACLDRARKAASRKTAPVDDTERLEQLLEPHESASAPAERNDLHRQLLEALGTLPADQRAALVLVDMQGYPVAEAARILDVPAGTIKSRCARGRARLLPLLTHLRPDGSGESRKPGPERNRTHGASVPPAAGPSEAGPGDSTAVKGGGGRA
# T11: ECF31_34
# T11 chain: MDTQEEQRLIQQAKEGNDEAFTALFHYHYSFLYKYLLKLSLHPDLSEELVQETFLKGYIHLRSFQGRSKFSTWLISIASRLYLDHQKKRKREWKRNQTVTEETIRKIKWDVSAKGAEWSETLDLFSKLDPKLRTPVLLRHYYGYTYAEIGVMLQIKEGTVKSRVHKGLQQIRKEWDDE
# T12: ECF37_2513
# T12 chain: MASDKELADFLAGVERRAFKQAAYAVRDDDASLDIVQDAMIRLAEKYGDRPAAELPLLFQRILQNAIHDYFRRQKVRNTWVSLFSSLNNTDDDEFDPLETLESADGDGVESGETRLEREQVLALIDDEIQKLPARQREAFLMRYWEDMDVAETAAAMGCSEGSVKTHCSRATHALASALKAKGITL
# T13: ECF38_1322
# T13 chain: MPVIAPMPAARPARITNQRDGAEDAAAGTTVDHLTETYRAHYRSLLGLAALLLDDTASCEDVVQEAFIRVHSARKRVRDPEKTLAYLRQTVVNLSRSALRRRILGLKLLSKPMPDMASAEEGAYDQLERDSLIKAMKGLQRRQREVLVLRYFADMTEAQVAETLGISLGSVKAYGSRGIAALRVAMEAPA
# Assays:
# ECF01_3473 = target: T1, ECF01_3473
# ECF02_2817 = target: T2, ECF02_2817
# ECF03_1198 = target: T3, ECF03_1198
# ECF11_3726 = target: T4, ECF11_3726
# ECF14_3200 = target: T5, ECF14_3200
# ECF15_524 = target: T6, ECF15_524
# ECF16_3622 = target: T7, ECF16_3622
# ECF16_973 = target: T8, ECF16_973
# ECF25_1645 = target: T9, ECF25_1645
# ECF27_4265 = target: T10, ECF27_4265
# ECF31_34 = target: T11, ECF31_34
# ECF37_2513 = target: T12, ECF37_2513
# ECF38_1322 = target: T13, ECF38_1322
binder,measurement,setting,value
AS11_987 (protein) MNKHPDNNLLEAYASGSIDAVSGLVVATHLETCSKCRAYVNQVEASQANTVSESPSEYSPEFDDMLNDIINAEPVNDNVVIQDTAFVNVAGKSFELPKTLVRFSDLVGSWRSYGGKVFSAQIDLGEDARVSLMYIGENVQIPQHTHRGLESTLVLHGGFSDEDGQYEEGDLMVRDASVKHSPFTQEGEDCLCLTVLTEPMIFTQGVARIFNLFGKGLYP,fold repression,ECF01_3473,4.16
same,fold repression,ECF02_2817,3.07
same,fold repression,ECF03_1198,2.32
same,fold repression,ECF11_3726,6.99
same,fold repression,ECF14_3200,2.94
same,fold repression,ECF15_524,3.35
same,fold repression,ECF16_3622,5.11
same,fold repression,ECF16_973,2.76
same,fold repression,ECF25_1645,2.46
same,fold repression,ECF27_1331,3.06
same,fold repression,ECF27_4265,2.05
same,fold repression,ECF31_34,2.53
same,fold repression,ECF37_2513,1.66
same,fold repression,ECF38_1322,2.08
AS04_1609 (protein) MNRTTEQRNAEVMKTIGLLDQMPRVEVDHLFRVRLMQRIEAMEVKKTSWSALPGGAFNPRLAFMALLLMLNIASALMLFMHGTPQATGSSGAIAESLTEDYGGPALSYYDDQTTIDR,fold repression,ECF01_3473,4.75
same,fold repression,ECF02_2817,2.53
same,fold repression,ECF03_1198,6.14
same,fold repression,ECF11_3726,13.9
same,fold repression,ECF14_3200,4.47
same,fold repression,ECF15_524,2.88
same,fold repression,ECF16_3622,13.1
same,fold repression,ECF16_973,6.3
same,fold repression,ECF25_1645,1.06
same,fold repression,ECF27_1331,2.31
same,fold repression,ECF27_4265,3.11
same,fold repression,ECF31_34,3.92
same,fold repression,ECF37_2513,2.72
same,fold repression,ECF38_1322,3.12
AS03_1244 (protein) MKQFDPDVNIRPKEDSIRHYSVPDDYFASFTDKLMAQIPAVKEENTVVVPSVALWPKLRPLLYLAASFLLMIGMFKAFSLFGVGSDTGRTTSTSAGLVALDHGDTRWSEDTDYRDFLHDNCAETVSDEWVLTDFSE,fold repression,ECF01_3473,2.13
same,fold repression,ECF02_2817,1.96
same,fold repression,ECF03_1198,2.13
same,fold repression,ECF11_3726,3.57
same,fold repression,ECF14_3200,2.19
same,fold repression,ECF15_524,2.14
same,fold repression,ECF16_3622,2.5
same,fold repression,ECF16_973,1.79
same,fold repression,ECF25_1645,1.37
same,fold repression,ECF27_1331,2.14
same,fold repression,ECF27_4265,1.61
same,fold repression,ECF31_34,1.92
same,fold repression,ECF37_2513,1.89
same,fold repression,ECF38_1322,1.68
AS03_1198 (protein) MDKDFDFDNIGKRTPYRTPDNFFEETQRKILERTVDEQRKKRRLKRIIPTVIAVAAVLAGILFTPSLRYMNTDTPSASNILAVDKNNVTTDPVDKWIKELSDEELEELVSFSENDIFLN,fold repression,ECF01_3473,2.38
same,fold repression,ECF02_2817,1.85
same,fold repression,ECF03_1198,45.8
same,fold repression,ECF11_3726,1.38
same,fold repression,ECF14_3200,0.974
same,fold repression,ECF15_524,1.49
same,fold repression,ECF16_3622,1.26
same,fold repression,ECF16_973,1.49
same,fold repression,ECF25_1645,0.816
same,fold repression,ECF27_1331,1.42
same,fold repression,ECF27_4265,0.852
same,fold repression,ECF31_34,1.12
same,fold repression,ECF37_2513,1.07
same,fold repression,ECF38_1322,1.07
AS01_3473 (protein) MSNYDNAELLALWLEGKLTPKQRDEFEQRCIQDSQFAEQVDAAAMVKIGADDYSSSEVPQWNKAATFEPQQANNSGSWLSGVSLVTSALAIVLVLTGTQVTTSEGELRIRFGSGQSEQALVKLVDSKLDAFKQNQQDAFTLYAQTLQQQQSESASQLTNYLLSSSRKERREDFAELIKFVNQQRSDDQLFYARQLNQLQQDVYHDATGVALESIQQ,fold repression,ECF01_3473,13
same,fold repression,ECF02_2817,2.1
same,fold repression,ECF03_1198,1.5
same,fold repression,ECF11_3726,5.65
same,fold repression,ECF14_3200,2.06
same,fold repression,ECF15_524,1.61
same,fold repression,ECF16_3622,2.47
same,fold repression,ECF16_973,1.49
same,fold repression,ECF25_1645,0.81
same,fold repression,ECF27_1331,3.09
same,fold repression,ECF27_4265,1.92
same,fold repression,ECF31_34,1.97
same,fold repression,ECF37_2513,1.38
same,fold repression,ECF38_1322,1.27
